Earlier results in article PMC11087986.
Where two headings read alike, the source gives them in different places.

Key:
[1] = biological target: RBM39 RRM1-RRM2 (Homo sapiens) (UniProt Q14498)
[2] = biological target: RBM39 RRM1-RRM2 (Homo sapiens) (UniProt Q14498); remark: listed apart in the source
[3] = biological target: RBM39 RRM1-RRM2 (Homo sapiens) (UniProt Q14498); remark: listed apart in the source

UniProt Q14498, sequence (Q14498 153-328): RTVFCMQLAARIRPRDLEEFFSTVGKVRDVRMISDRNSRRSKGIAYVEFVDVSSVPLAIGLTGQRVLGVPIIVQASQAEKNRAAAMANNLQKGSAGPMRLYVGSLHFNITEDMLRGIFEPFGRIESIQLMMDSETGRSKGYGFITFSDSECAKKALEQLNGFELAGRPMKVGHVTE

## DCAF15 (from UniProt Q66K64)
[1]
  Kd: 4600 nM
[2]
  Kd: 120 nM
[3]
  Kd: 160 nM
